Our source for the protein production values is a protein production outcome set (Wang et al. 2014).

A short description of this data set: label from the status in PepcDB records.
“MKTLDFRRAGAHIALVVLFAVCPVAFADENDEVAKLYQQGNLDKALEQANAYLALKPKDPQMRFHKGLILTEQQKIPDAIKVFSSLSEDYPNLPEPYNNLAVLYASQGLYEKARGALEAAIRTHPSYSIAHENLGDIYAKLASEAYGKALQLDQGNAAAQTKLAMIKDLFIGKSGAIKTASAATAPAPPASAAPRSPAATTPSPPRSAAPATPPASVHPAPGKAPQKSAEKKTEKAEKSAPGKIAAVETHSPEKKTDVPDESDEIIKTVNAWARAWSDKNVTAYFAFYAADFQTPRGVKRTTWEKTRRDRIIKPKAIQVEITHPKVTLINPARARVSFRQLYHSDAFKHDSSKTLEMVKTDGKWQIRQERSAK”: the protein production result is “failed”. On to “MKTLGNILWFIFGGFFGGLSWLFAGVIWCITIIGIPIGLQCFKLAGLSFWPFKKRVVYSDSGVSLVVNIIWLIISGLPLAIGHCISGLFLCLTIIGIPFGQQSFKLAKLALMPFGARVVSTNDFYFE”, for which the protein production result was “failed”. For “MKTNSEELTVFVQVVESGSFSRAAEQLAMANSAVSRIVKRLEEKLGVNLLNRTTRQLSLTEEGAQYFRRAQRILQEMAAAETEMLAVHEIPQGVLSVDSAMPMVLHLLAPLAAKFNERYPHIRLSLVSSEGYINLIERKVDIALRAGELDDSGLRARHLFDSRFRVIASPEYLAKHGTPQSTEELAGHQCLGFTEPGSLNTWAVLDAQGNPYKISPHFTASSGEILRSLCLSGCGIVCLSDFLVDNDIAEGKLIPLLAEQTSDKTHPFNAVYYSDKAVNLRLRVFLDFLVEELGNNLCG” the value was “failed”; for “MKTQITTRDLVLEFIHALNTENFPAAKKRLNENFTFNGPMGHREGSERYMNDMEKMKFKYVVHKMFEEGNDVCLIYDINMNGKTIAASGLYHLEKGEITSLHVYFDPRPLFEE”, “not failed”. Consider “MKTREYYVAAAAGLIGGNVSSFVKWGTEIPFPPRTPDRPIPPLEMLDSLGINANQLTYVYSEHMVNYGSALIHQSFSIFFAIFYCLTALRYPRVAVWQGFGFGMLVTLAFHGVLLPMFHWAPPLWELPPAEWASETFGHLLWIWVIEVIRRDLQQRWSPGPG”, for which the protein production entry is reported as “failed”.

On to “MKTVILIGALGKMGQAALTGLSKHKVITAGRSGNVDHLVDITNENSIRALYEKVGHFDAVVNTVGFCEYATFAEMTEAQWMTTVMSKMMGQINLVRIGQEYIADKGSFTLISGILNVKPIPCAIADATTSGAIDTFVKCVAYEMQRGTRINVVNPTVLTEAWDVYGDMMPGFEPVPSTLVGKAFERSVDGFINGEVLFVDALEHHHHHH”, for which the protein production result was “not failed”.

Turning to “MKTVLLTGFDPFGGESINPAWEVAKSLHEKTIGEYKIISKQVPTVFHKSISVLKEYIEELAPEFIICIGQAGGRPDITIERVAINIDDARIADNEGNQPVDVPVVEEGPAAYWSTLPMKAIVKKLQEEGIPASVSQTAGTFVCNHLFYGLMHELEKHDTKMKGGFIHIPFLPEQASNYPGQPSMSLSTIRKGIELAVEVTTTVEVDIVEVGGTTH”, the protein production entry is listed as “not failed”. The result for “MKTVPAMLGTPRLFREFFILHLGLWSILCEKATKRNDEECEVQLNIKRNSKHSAWTGELFKIECPVKYCVHRPNVTWCKHNGTIWVPLEVGPQLYTSWEENRSVPVFVLHFKPIHLSDNGSYSCSTNFNSQVINSHSVTIHVRERTQNSSEHPLITVSDIPDATNASGPSTMEERPGRTWLLYTLLPLGALLLLLACVCLLCFLKRIQGKEKKPSDLAGRDTNLVDIPASSRTNHQALPSGTGIYDNDPWSSMQDESELTISLQSERNNQGIVYASLNHCVIGRNPRQENNMQEAPTEYASICVRS” reads “not failed”; that for “MKTYSVIAVASLLATNLLTFPSSSLAEIENKTRNSIEAVSHMQSNEKSELQKQLEAAKEREMKLEKREEILKQQEELFIKIDDLKQKKEELLEQAGEHNVQIEEVYQELNELKKQQEELEEKNPLQVKSNDQEKKTNELKSQEELKEKDGVEVKENNGQEEKVHEEFEEQKKKEELKKQQDELRKQQEELKKQQLELEQRIKQELERKQQEEQAKQELELKQKEEQAKRELELKQKEEQVKQELELKQKEEQVKQELELKQKEEQVKQELELKQKEEQEKQELELKQKEEQEKQELELKQKEEQKKQELELKQKEEQEKGERELKQAVSSIQAAPQSFPDVPGWAQESVYYLVHKKVISGMPDGTFSPSKVLSRAEAATIMAKILELEVSEGEKPTFTDSQDHWATPYIAAVEKAGVIKGEGNGKFNPNGQMTRAAMATMLVQAYQLEKKVHEELPTLFPDVKDHWGEKFINILVGMGISSGVDGGRWQPDRSITRAEAAQLVAVTDKSKDNELKMKKVSISKKFFTYNGPSLSSGISKEYGPREVTVYEERDGGWIRIHTDTGFKWVCLVEKKVNMNKNFLTYNEASLSSGISGEYAPQIVTVIEEREGNWIKVYTDLGYKWVCLIDKKVQIDRDFTTYDAPFRSANILDYYGPQAVTVVEERGTWLRIRTYAGYQWLDTKKEAKYLSKVFFAYDSPSFVSRVSGKYAPQTVEVYGEREGGWIQIQTSNGLKWVNEGNINRSQVILNVPSLYQFPELHNGCEVVSLQMLVEHQIGRSLNKVAFAFEMPFDQAKLKNYKTSSQIWGDPDVGFVGDVTGNTPGYSINPEPLKRLLDKYSRGTNLTGNDLSVLEDYVRNGKPVVTWVTVALNNPRAVTTWKTPGGKIIYARMNTHAVVLTGVDDNYVYYNDPFYGTKNVKVSKSRFASIYNQMGKKALSVD”, “failed”; that for “MKTYTSVIFWMRTIACLSIVLIHSITTTFSKMDFLGHGTAIRVFQLMLMFSTPLFVFISEFLLAKNYQVKTKPGFFKNKLIYLGIPYIIINIGIALFYFESKTFDQFMTHLGDTMFHGGAVTYFIVIIFQFYILHILFAKYLIKWKPVPVIIGAVIFATIYWAFRQYAPQSEHPILGLFWEREGWMLFLGWISYFLLGFYTGIYYETFMKKIKKYTWPIIIGAIIATSILVDNYLFGISTWVESKRFDIPFYVKMVILVFFLFASYVKYVPKFILFISNYSFCIYLIHYFFVHELGLLRAASSLRNIAFNFIITLTVSICLAYIFNLSKYGKFIVGGIGHIKYDKVYESYKHGKMD”, “failed”.

Regarding “MKVAILGAGCYRTHAASGITNFSRASQVAKEAGIPEIAMTHSTITMGAELLHLIPEITEVVVSDPCFAEEPGMVVLDQFDYKAVMEAHLAGDAEKVMPEIREAVKAKAKETPKPPKGCIHFVHPETVGLKVTASDVEAVKDADIVITWLPKGGSQPAIIEKFASEIKKGAIVTHACTIPTPKFAKIFKDLGRDDLNIIAYHPGAVPEMKGQAFLSEGLADAEKVEEFYCMAKTARGEAFKMPANLISPVCDMGSAVTAPVYAAILAYRDAVTQILGAPADFAQMMADEAISQILDLMRNEGIKNMEDKLNPKALTGTADSMCFGPLADILPASLKVLEKHANENKCECGCSIKP”, the protein production entry is “failed”.

In the case of “MKVALGGTFEPLHEGHKKLIDVAIKLGGRDITIGVTSDRMARARIRSVLPFAIRAENVKRYVMRKYGFEPEIVKITNPYGKTLDVDFEYLVVSPETYEMALKINQKREELGKRKITIVKVDWMMAEDGKPISSTRIKRGEIDRYGG”, the protein production entry is listed as “failed”. The result for “MKVEKGDVIRLHYTGKVKETGEIFDTTYEDVAKEARIYNPNGIYGPVPIAVGAGHVLPGLDKRLIGLEVKKKYVIEVPPEEGFGLRDPGKIKIIPLGKFRKSGIIPYPGLEIEVETENGRKMRGRVLTVSGGRVRVDFNHPLAGKTLVYEVEVVEKIEDPIEKIKALIELRLPMIDKDKVIIEISEKDVKLNFKDVDIDPKTLILGEILLESDLKFIGYEKVEFEPTIEELLKPKSAEEQESPNEEQQEESESKAEES” reads “failed”. The result for “MKVFEFEVGKGFLLRLDYGKDLVRQIEEFLEEKGIHAAHISAIGAVRSAVIGYYDQEKKEYVKKELMEPLEILSLSGNVSMKDSKPFCHIHVLLGKDGEVYGGHLFSAEVFACEVFVLPLSGEAPERAFDEQTGLFLWLEHHHHHH” reads “not failed”.

“MKVGIIGLGFRLGYLGYVFKAIDSSFDIVGYVDPDPAGLPGLTEKGISAGKAYGSPEELLASEKLDLLMIGSPNHMHLGHIRLGLQAGLKVFCEKPIVTTIAESIELAHLMAKFGHERLMVGLVLRYSPLYKDLRAIQAEGKLGQIVSIEASEHIEPYHGAFFMRDWRRYERYSGSFMLEKCCHDLDLYNGVVGARPERVASFGGRKSFIPANDPAREGINDLELFHRKPSGWMGSDKVFDSDADIIDYQVAIVEYENGVGMNFHTNLNVPDQFRRFAIMGSRGMAEGDFVRGYLDVHEQLTGNKIVENKYAATELSQHYGADEQMASDLLESVRTGLELPVSTLNALEAGILALAMDEARMKKTVVDLRPIWDRFDEALHARAA”: the protein production entry was “failed”.

As for “MKVGVIGASEMAGSAIYKLAKQNLEIDVTGIVRHESKAKKVLGDDAKLIVGDIFALSDNILDKFDVIIDAFGTDPKNAEEHVILAKKLINLVRKNKIRVIFILGAGSLHTGDDEHLVVDDIAQMDNADTWINTPRQQLKELEYLNSIDDVDWLGISPALQFEAGPATEYIEGTDELLYNKDGDSKLTSGTMATVVIKETVDSVHHQERITIANALEHHHHHH”, the protein production entry is “not failed”. On to “MKVIETNFTDAKLLEPRLFGDDRGFFTESYNKKVLETLGVTHSFVQDNVSYSAEAGTIRGLHFQKNPKAQTKLIQVMQGAIYDVIVDLRKDSPTFKQWRGYILSADNHRQLLVPKGFAHGFCTLVPHTIVMYKVDEYYSADHDSGVLWNDKELAIPWPVTSPILSDKDRILPLLQECEDSF”, for which the protein production entry is recorded as “not failed”. For “MKVIIIGGETTAYYLARSMLSRKYGVVIINKDRELCEEFAKKLKATIIHGDGSHKEILRDAEVSKNDVVVILTPRDEVNLFIAQLVMKDFGVKRVVSLVNDPGNMEIFKKMGITTVLNLTTLITNTVEALIFPDEFSSIIPLEQGIE” the value was “failed”. For “MKVLAVAYDPRDFGELATGVRDSLGDAELVFLAVHKAAEEPGKASGYSEKVFVSRTSSPESIALLLEKLISEEKPDIIVGEAYKNLRDALSRVAGKLDLPMATDVSSFSVENGKVKFRKGFLSEKAVMEAEIPKPAVILFLTRFTKPKEISPESQARIVELEPPQGETKVVETRPKEMGGANLEEAEIIVGVGRGFKSKEDLKLAFELAELLNAQIGCTRPIAADLKWLSEDHWIGISGKRVAPKLYLAIGISGSPQHMSGVQNAKIIVAVNKDKNAPIFKQADYGVVADLYQFIPVLIKKLRERKSN” the value was “failed”; for “MKVLDSRDFAKVKAIAIERASYRNIGALAVYIGSMTGMRISEVLALTWPDIDTKLCVIHVTRSWDHLYGTGFKPTKTDSSVRDIEISPSVIELLNKIHQEQAASYLRTGYRDEDQMIMRDPRHNVITDSACNKALHVIQNKAGIPEDKQITFHGLRHSHVSYLISKGVDIYYISKRLGHSDVTITMKVYGHLLDSQRKQEAHKAVLFMDQILEHHHHHH”, “failed”.

In the case of “MKVLESAPSRYDRGIRIITLGKLDEAYDRLTSRIKPGQRVLDVGCGTGALTLRAALRGARVKAIDINPQMLEIARKRVEEAGVTGMVELCEMGVAELNTEASEGYDAVMAGLCFSELTEDELSYALREIKRVLKPGALLLIADEAVPESPVKRVLSWLIRAPLAVIAYLLIQTTTRAVKNLPEKLGEEGFLIESVRRSFMEDFVEIVARKPGR”, the protein production result is reported as “failed”. Take “MKVLFLTANEFEDVELIYPYHRLKEEGHEVYIASFERGTITGKHGYSVKVDLTFDKVNPEEFDALVLPGGRAPERVRLNEKAVSIARKMFSEGKPVASICHGPQILISAGVLRGRKGTSYPGIKDDMINAGVEWVDAEVVVDGNWVSSRVPADLYAWMREFVKLLK”: the protein production result is “not failed”. The result for “MKVLIDTNVILDVLLNRASFVQDAIAVLELTCGNIQAYVSASAITDIYYIAYKELRDKIRVKNLIKTLLQIITVAGISDKEIMSAIDSDWADFEDSLQNAVAESHDCSMIITRNISDFNGSNLQIISPKDFIVQFTHLEHHHHHH” reads “failed”.
